{"source": "the DeepSol protein solubility set"}
{"test": "soluble on expression in E. coli; label from the status in PepcDB or PDB records"}
{"sequence": "MNARSTGQHPARYPGAAAGEPTLDSWQEPPHNRWAFAHLGEMVPSAAVSRRPVNAPGHALVRLGAIAAQLPDLEQRLEQTYTDAFLVLRGTEVVAEYYRAGFAPDDRHLLMSVSKSLCGTVVGVLVDEGRIDPAQPVTEYVPELAGSVYDGPSVLQVLDMQISIDYNEDYVDPASEVQTHGRSAGWSTRRHGDPADTYEFLTTLRGDGSTGEFQYCSANTDVLAWIVERVTGLRYVEALSTYLWAKLDADRDATITVDTTGFGCAHGGVSCTARDLARVGRMMLDGGVAPRGRVVSEDWVRRVLAGGSHEAMTDKGFTNTFPDGSYTRQWWCTGNERANVSGIGIHGQNLWLDPLTDSVIVKLSSWPDPYTEHWHRLQNGILLDVSRALDAV", "soluble on expression in E. coli": "soluble"}
{"sequence": "MNDNKILVVNAGSSSIKFQLFDYHKKVLAKALCERIFVDGFFKLEFNEQKVEEKVAFPDHHAAVTHFLNTLKKHKIIQELSDIILVGHRVVQGANYFKDSVIVDAEALAKIKEFIKLAPLHNKPEADVIEIFFKEVPSAKNVAVFDTTFHTTIPQENYLYAVPRSWEQKHLVRRYGFHGTSYKFINNYLEKHLNKQNLNLIVCHLGNGASVCAIKNGKSFNTSMGFTPLEGLIMGTRSGDLDPAIIGYVAEQENMSASDVVNALNKKSGMLALTGASDMRDVFAKPQENAVAIKMYVNRVADYIAKYLNQLEGNIDGLVFTGGIGENASDCVELFINAVKSLGFATDLKLFVKYGDSCVVSTPQSKYKIYRVRTNEELMIVEDSIRLTQK", "soluble on expression in E. coli": "soluble"}
{"sequence": "MNDYIVVKCGGSMLEQLNDVFFDCIKKLQQQYKVVIVHGGGPEIDAKLKDCNINVEKRDGLRVTPKEVMDVVQMVLCGSTNKKFVMNLQKHNLLAVGCSGCDGKLLQVQPVSEEIGYVGEVSYVETALLKGLINMNYIPVIAPIGIHDNEIYNINADTAAAGIAAALSAKELILITDVDGILHEGKLVKKTDESEIATLIEKGVITGGMIPKVQAALASLKMGVQKISIVNGTKDFTEDTGECIGMTVTRGVSIV", "soluble on expression in E. coli": "not soluble"}
{"sequence": "MNEFEDLLNSVSEVNPGDVVTAEVLTVDGEQANLVIDGTGVEAVLTLRELTNDRNADINDFVKAGDKVEVLVLRQVVGKDTDTVTFLVSKKRLEARKAWDKLVGREGDVVTVKGTRAVKGGLSVEFEGLRGFIPASMIDTRFVRNTEKFVGQQFEAKIKEIDPSENRFILSRRDVVEAAAAKAREEVFSRLAVGDIVTGTVARLTSFGAFIDLGGVDGLVHITELSHERNVSPKSVVTVGEEIQVKVLAIDEEAGRVSLSLKATTPGPWDGVEQKLAAGDVIEGKVKRLTDFGAFVEVLPGIDGLVHISQISHKRVENPKDVLSVGQDVTVKVLDVNTADERVSLSIKALEERPAQDESNGEKRQSRPRRQKRQDKRDYELPETQTGFSMADLFGDIELLEHHHHHH", "soluble on expression in E. coli": "soluble"}
{"sequence": "MNEFETLLNSVEDVKVRDVVKGEILSVENGQATVAIVGTGVEGVLTLREITNDKDADINTFVKPGDVLDLLVIKQIVGKEAEGANVYLLSLKRLEARKAWTQLEGKEGEIVTVKVTKDVKGGLSVDYNGVRGFIPASMIDTYFVKDTKKFVGEEIEAKIIEVNASENRFILSRRAVVEAEAIEMRKEAFAQLQEGDIVEGTVSRVTNFGAFVDLGGIDGLVHVSELSHSRIKRPSDAVKPGDVVNVKILKLDPEAGRLSLSLKATQPGPWEQVEEKAPVGSTVEGTVKRLTDFGAFVELYPGVEGLVHVSQISWERVENPKDVLKVGQVVNVKVLDVKPAEERISLSIKALEEAPARPARNNDNDGEKRDRKPRAPRKAAKPSYDLPETQEGFSLADFLGEDFDINDLLEHHHHHH", "soluble on expression in E. coli": "soluble"}
{"sequence": "MNEFKYNIGYALSGGFIKGFAHLGIMQALHEHGIRPEILSGVSAGALAAVFYADGKEPYHIVELFEHHSFKELTTFSINKQGLLKLDSFIDFLNSNLESKTIEELKIPTIITATDLDHGRIVSFKKGKIAERLAASCCMPILFAPIRINNTYYVDGGILMNLPVSPIRKECEKVIALNVDPLVADEYSKNVVSIALRAYHFIFQANTLPQKGIADLLIESYGLEEYSNRELERAEEIFEKGYNTATELLDRLLLENGTIWR", "soluble on expression in E. coli": "not soluble"}
{"sequence": "MNEFTAVKELSEKLLEDYKTESSFFFASPTRTILAEGEFTTVKHHEIESFPELVQAVLRNAKQAGNPNPIVVGALPFDRRKEVQLIVPEYSRISERLQLDPTNHLEINRNLTFEMTPVPDHEVYMKGVKQGIEKIKDGDLKKIVLSRSLDVKSSGKIDKQKLLRELAEHNKHGYTFAVNLPKDENENSKTLIGASPELLVSRHGMQVISNPLAGSRPRSDDPVEDKRRAEELLSSPKDLHEHAVVVEAVAAALRPYCHTLYVPEKPSVIHSEAMWHLSTEVKGELKNPNTSSLELAIALHPTPAVCGTPMEEAREAIQKIEPFDREFFTGMLGWSDLNGDGEWIVTIRCAEVQENTLRLYAGAGVVAESKPEDELAETSAKFQTMLKALGLNDSSLNEK", "soluble on expression in E. coli": "not soluble"}
{"sequence": "MNELVSAFHIERANGKVNGDVVAVEPAKTVNQDAADDEVEIKLNVDNYQMLRSDSQGSLNSHGRSNSRLGRLFRSKHEMKKRETRADENRGEIEIQIDFDDLVNQLKIALIRCRDLMTFDKKDQCNPYVSVKLVALDGNKEVFKKKTPTAKNTRHPHFDNHVEIDINPSDLLNHKVVINVKDDTNYGTFVAKPVLGCLEIRLDSLMNRQLSQRWIPLSVERK", "soluble on expression in E. coli": "not soluble"}
{"sequence": "MNEQGVIFNSNGKQLVGIEHLPEPIHQGQTNKGVIIVVGGPQTRVGSHRLFVHLARALAKQRIVVFCFDYSGAGDSEGTVSTFTDIQDDIEAAFTPLSSAIVILLSWLDGAYAMLHRPFCFTSMSALNKRR", "soluble on expression in E. coli": "not soluble"}
{"sequence": "MNEQYSALRSNVSMLGKVLGETIKDALGEHILERVETIRKLSKSSRAGNDANRQELLTTLQNLSNDELLPVARAFSQFLNLANTAEQYHSISPKGEAASNPEVIARTLRKLKNQPELSEDTIKKAVESLSLELVLTAHPTEITRRTLIHKMVEVNACLKQLDNKDIADYEHNQLMRRLRQLIAQSWHTDEIRKLRPSPVDEAKWGFAVVENSLWQGVPNYLRELNEQLEENLGYKLPVEFVPVRFTSWMGGDRDGNPNVTADITRHVLLLSRWKATDLFLKDIQVLVSELSMVEATPELLALVGEEGAAEPYRYLMKNLRSRLMATQAWLEARLKGEELPKPEGLLTQNEELWEPLYACYQSLQACGMGIIANGDLLDTLRRVKCFGVPLVRIDIRQESTRHTEALGELTRYLGIGDYESWSEADKQAFLIRELNSKRPLLPRNWQPSAETREVLDTCQVIAEAPQGSIAAYVISMAKTPSDVLAVHLLLKEAGIGFAMPVAPLFETLDDLNNANDVMTQLLNIDWYRGLIQGKQMVMIGYSDSAKDAGVMAASWAQYQAQDALIKTCEKAGIELTLFHGRGGSIGRGGAPAHAALLSQPPGSLKGGLRVTEQGEMIRFKYGLPEITVSSLSLYTGAILEANLLPPPEPKESWRRIMDELSVISCDVYRGYVRENKDFVPYFRSATPEQELGKLPLGSRPAKRRPTGGVESLRAIPWIFAWTQNRLMLPAWLGAGTALQKVVEDGKQSELEAMCRDWPFFSTRLGMLEMVFAKADLWLAEYYDQRLVDKALWPLGKELRNLQEEDIKVVLAIANDSHLMADLPWIAESIQLRNIYTDPLNVLQAELLHRSRQAEKEGQEPDPRVEQALMVTIAGIAAGMRNTG", "soluble on expression in E. coli": "soluble"}
{"sequence": "MNERFGELNFVTPDACSLRRMANKYYPYTMRQSFPLWTSISKEVQIVEGRELPVMQDLADRHPEINKMYGSAEELWENLKTFIDFQGNLQYFEVNPCVSYNHRFFIHKDISSDKKFLYKNDIFLSIQDNLIVRKPVLRNRVSLFMLAYFLKYHEKKLSTSCEFVEYVEKDFDNLINELNDFLLDFIKKPKPVANDANFDWKKVFTRLRNMLPEPMTEEEMSPLADVLKRYFETYPRAQAVGVLNMIEQFCKMMIPRLQKIMDKRPEWFLPNRTKNAKPVLRYFIDGKKPFVMVPEYEIATKEKFQYTDSSFMATGIDTIDLSDISLVASSNGGSLSDFYCIRFNIERTKHTARPIRTTTGTFCKLSADVLLEHLRDLFFGSRVFQSPTRSMFNGYVISMNEIFNSNAQGIYFLEESIIEFVEKISSGLFGTPESKTIRDVPPKGFTVGDVHSELKYLGLLEFFPNISNYAEIAYKKVVAEKKMKILRTCDMFDAVEICMMLAVFNGYPKLAQFLHSQHACHRIQGLQCKKCELEKKHPMMNSWLYPYMEVEEDEKVDSTSSDDEEKRTSTSELAGNGRKSEQKKLAVKDPEPSTMEKETRKSKCCESTKDQLKAFQEQVEALKKEMKELETAMSKNLKN", "soluble on expression in E. coli": "not soluble"}
{"sequence": "MNERKKSIDELLSDLGVLEEAPVEVELKESGTPEAQGDPRAFLEEFLGGLLLLLDPGHRLEVRVEGETLKAEVKGGDLGRFIGKEGRTLRAVEHLARVVLARRFGTGYRLVLDAAGYRSRAEARIRRLAEEAALTVAMTGEPLHLPPMPPGERRIVHMLLKNHPRVTTESQGEGEERHVVVYPRREAQG", "soluble on expression in E. coli": "soluble"}
{"sequence": "MNESGFLIDTHAHIDGHDFAADFDAMLSRAWEAGLSHIVTVGADLESSRAAVALAGRHERIWCAVGIHPHDAGRVTDRCYDEIRTLAQGNPKVAAIGEIGLDFFRDRSPRDEQEQVFRRFIRLARELALPIVVHDRDAHERVMAILREEKARDVGGVLHCFSGDLAMARECVDMGFLISIPGTVTYPSNEALREVVRGVKIEHLLVETDCPYLTPVPHRGKRNEPAYVRLTAEKVAELKGLSLEDVGRITSLNARRLFGIGESDQAARIAYRIRNSLYLNITNRCSNRCSFCAKFDDYTVKGHHLRLDHEPDSAEVLAAVGEPGPVDEIVFCGFGEPMLRLDLIVEVARELKKRGFRIRINTDGQANLVHGRNVLPELQGLVDCISVSLNAADADTYARLCNTPFGTNGFNGICRFLEEARLYIPTVVATAVTVPGIDVAAVRALAESLGVEFREREFAEVGLEHHHHHH", "soluble on expression in E. coli": "soluble"}
{"sequence": "MNESVDTDEATTPLVSAIIPTYGRNERLSSAIQSVLEQTYDNIELFVVDDASPTPVRETLDSFDPTVENSFRILRHDENQGANAARNTGIRASDGRYVAFLDDDDQWDETKITKQVQAFQESDSETGVVYTGVRKDGPEGTTVSTPVASGDVMKDLLTGTNFGQFSSVMVDTTVIETAGLPDERLPAWQDREWFFRLAQHTHFRPVRETLTYRQTGLPGSITKKYEQKRDVAYPMLISKHDWVAAEYGIYYERMFKATMRRSLARSAVRADRYKEARKYFLLSALANPLYWPVYPHLFASLGGKWSYESIASLRQQVTNGPASGT", "soluble on expression in E. coli": "not soluble"}
{"sequence": "MNETEFYAYHIVTRKKMHIGQMIPFNKNQHNTLYHFFFEREQLNANGEDGIQILNNHYKNDELHINNENAKVVISYMDQTIRAARETIVEMVRLQEFPEYPSRLSCLYAAKSYEDALKWKALFDSYNREVLQIVKLRVIGSSFEGDGNLLPKEDGIPFSQKIEQARKYWKGNIRNELPELLINGEIEVVEIIDDFSSIHI", "soluble on expression in E. coli": "soluble"}
{"sequence": "MNFFKRKFSFSEDEGEPMDDVNSGPPSSFSFQSIANKVSNTISAPTSPAKSRESLAAALERSLNHDRSRGEPLMKDAKVLLVIDSHHVDWSKYFRNHTEYAIRVEQGDIDELDVMCTEKNCTVELNTPGKDVRTFTPSAVFLGAGATRCAQLKTITRAFIAAHIPFLNSHTSAVAFLDRNNLKKQLKKITLSDGASIPMLPIVHYPHFHKFHQSQSSTYPMVVSVNEGFQGIGKIKVNNHEELCDVEGMLQIMSKGDTEVEVQPFVDAKYDLHIQKIGHEYKTFIRRGICKHWKSNVGSSVLEQISTCERHKKYLKAITDHVGPMHICSIDILVSKEGREFVHDVNDVIAYFGESAEDDRRAASLLLRALVAPRITSPIAAEPPATSPTTSAVTNGHGNHGPAPAVPTRRLPPHPSSSSAAPPRGHMSDKVESRHKDHYDPPPQIPRTGSRESVSYVDDTMGQLKRTFAGFFGE", "soluble on expression in E. coli": "not soluble"}
